The data set can be described thus: protein stability index of a GFP-peptide fusion (GPS, HEK-293T) (PSI 1-6); higher = more stable. Particulars: c terminus: a fixed tail appended.

± gives the standard deviation.
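Also: 24-mer peptide tiles fused after GFP, lentivirally expressed, FACS-sorted into six equal bins by GFP/DsRed ratio, decoded by Illumina sequencing, PSI is the read-weighted mean bin number.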

As to TLKRGYFQKSLVLISKLPYIHFFH [DENND6A], the protein stability index is 3.11 ± 0.73 (treatment: DMSO) and 2.7 ± 0.3 (treatment: MLN4924 1 uM, 8 h). For the sequence TLNIKETDSKELSMAKEVIAKELS [ZBED1], the protein stability index by setting is: (treatment: DMSO) 3.87 ± 0.086; (treatment: MLN4924 1 uM, 8 h) 4.13 ± 0.12.

Sequence TLTSVQLLDCFGIPVLMALSWFIL [SLC35F2] gave a protein stability index (treatment: DMSO) of 3.03 ± 0.35 and a protein stability index (treatment: MLN4924 1 uM, 8 h) of 2.65 ± 0.58. On the same counts, the results for TNRVKECLAKGTFSDVTFILDDGT [RHOBTB2] are 3.52 ± 0.16 and 3.63 ± 0.18.

TNTTSTQMTNIGVYVSNMTDKLVT [IQUB] yielded a protein stability index (treatment: DMSO) of 2.78 ± 0.3 and a protein stability index (treatment: MLN4924 1 uM, 8 h) of 2.8 ± 0.34. Consider TPIEVLCENFPEMATYLRYVRRLD [CSNK1G3], for which the protein stability index is, setting by setting: (treatment: DMSO) 2.39 ± 0.3; (treatment: MLN4924 1 uM, 8 h) 2.6 ± 0.44. In the same order, the values of TPLHVAAANKAVKCAEVIIPLLSS [ANKRD44] are 2.44 ± 0.26 and 2.54 ± 0.22. On the same counts, the results for TSAEIELPDVEPAAFLALLRFLYS [BTBD1] are 2.42 ± 0.25 and 2.34 ± 0.2. On to TSAVLKAGRQSVSGRKNSTSKDLV [C6orf223], for which the protein stability index reads like this: (treatment: DMSO) 4.26 ± 0.074; (treatment: MLN4924 1 uM, 8 h) 4.38 ± 0.22. In the same order, the values of TSCIVIILIIISVIVQIKQPRKKY [NETO1] are 3.26 ± 0.17 and 3 ± 0.16.

On to TSKDLVTLGASSLREERGHPLHPR [C6orf223], for which the protein stability index is, setting by setting: (treatment: DMSO) 4.26 ± 0.063; (treatment: MLN4924 1 uM, 8 h) 4.33 ± 0.18. In the same order, the values of TSPECASPQFEGPLSPPPINYNGI [NEUROD6] are 4.07 ± 0.15 and 3.91 ± 0.3.

In the case of TVDSMIPAYATTRIRSQIGNTESE [GDAP1], the protein stability index by setting is: (treatment: DMSO) 4.86 ± 0.16; (treatment: MLN4924 1 uM, 8 h) 4.99 ± 0.076. In the same order, the values of TVVGLFNVRDRDSGRNGEVSLDIS [PCDHGC5] are 2.83 ± 0.37 and 3.13 ± 0.19. In the same order, the values of TVVGVPSGKVSSSSSSLGNKLQTL [ZC2HC1A] are 3.56 ± 0.34 and 3.73 ± 0.29. In the same order, the values of TWALYNLVSVYPDKYCPLLIKEGG [ZER1] are 2.62 ± 0.99 and 2.26 ± 0.34. As for TWAMRQRGTHAVVGVATADAPLHS [SPSB1], the protein stability index runs as follows: (treatment: DMSO) 2.72 ± 0.34; (treatment: MLN4924 1 uM, 8 h) 2.87 ± 0.23. As to VAAAASRGADDAMESSKPGPVQVV [ATL3], the protein stability index by setting is: (treatment: DMSO) 5.03 ± 0.26; (treatment: MLN4924 1 uM, 8 h) 4.9 ± 0.25. On the same counts, the results for VALLNKTNVKFLAITTDCLQILAY [CTNNB1] are 2.86 ± 0.51 and 2.91 ± 0.42.

Regarding VALLRAHAGEHLLLGATKRSMVFK [HNF4A], the protein stability index turned out to be 2.27 ± 0.45 (treatment: DMSO) and 2.48 ± 0.096 (treatment: MLN4924 1 uM, 8 h). On the same counts, the results for VASKMKETIPLTAEKLCIYTDNSI [CCND1] are 3.15 ± 0.42 and 3.33 ± 0.084. On the same counts, the results for VAWHPVRPIIASISSGVVSIWAQN [RBBP5] are 2.48 ± 0.48 and 2.5 ± 0.39.

With VCGGAQRPGHLPGLLLGSHGLLGS [CDC25B], the protein stability index was determined as 1.9 ± 0.96 (treatment: DMSO) and 3.24 ± 1.6 (treatment: MLN4924 1 uM, 8 h). In the same order, the values of VCVDRVLYLFGGHHSRGNTNKFYM [KLHDC2] are 2.37 ± 1.4 and 2.86 ± 1.1. VCVEHHTFFRLLLPEAPPKKFLTL [EPB41L3]: the protein stability index (treatment: MLN4924 1 uM, 8 h) was 2.85 ± 0.42.

Consider VEEFGVVSNTRLIAAATSVLKTRF [CCNC], for which the protein stability index was 2.88 ± 0.61 (treatment: DMSO) and 2.26 ± 0.68 (treatment: MLN4924 1 uM, 8 h).

Regarding VEPKHCFTSPDYQQQCHEMAERLE [SDE2], the protein stability index was 4.85 ± 0.21 (treatment: DMSO) and 4.83 ± 0.18 (treatment: MLN4924 1 uM, 8 h). On the same counts, the results for VEQPQPQFISRFLEGQSGVTIKHV [NEK8] are 3.27 ± 0.18 and 3.29 ± 0.17. In the same order, the values of VGAAETTLTELRRTVQSLEIDLDS [KRT18] are 4.51 ± 0.19 and 4.86 ± 0.24. Take VGGVLRGLNHSLSYDVALHRTRLQ [SCARA5]: the protein stability index is, setting by setting: (treatment: DMSO) 2.59 ± 0.18; (treatment: MLN4924 1 uM, 8 h) 2.84 ± 0.32.

In the case of VGMNFLHCMAPPLLHLDLKPANIL [RIPK4], the protein stability index amounted to 2.73 ± 0.57 (treatment: DMSO) and 2.14 ± 0.63 (treatment: MLN4924 1 uM, 8 h). On the same counts, the results for VGPWLGQLQELLHHCDDHLSLYQL [RSAD1] are 2.25 ± 0.45 and 2.6 ± 0.55. On the same counts, the results for VHEHDGHLYLGSFRSPFLCRLSLQ [APMAP] are 2.73 ± 0.51 and 2.33 ± 0.41. As to VHRQLSHLYAEPQKSPWCEARSLE [ESR2], the protein stability index runs as follows: (treatment: DMSO) 2.92 ± 0.28; (treatment: MLN4924 1 uM, 8 h) 3.2 ± 0.24. In the same order, the values of VHYLHSKRIAHFDLKPENIMLLDK [DAPK3] are 2.33 ± 0.34 and 2.17 ± 0.28.

As for VISKKAKVKVPQKTAGKENHFDMH [ZNF75A], the protein stability index came out at 3.08 ± 0.24 (treatment: DMSO) and 3.06 ± 0.26 (treatment: MLN4924 1 uM, 8 h). In the same order, the values of VIYNYVQRPFIRMSWEKEEGKSRH [BTBD10] are 2.24 ± 0.32 and 2.46 ± 0.17.

For the origin of these results see the supplement of paper PMC10567573.
